Data published in patent US6509033 (Harvard, dated 2003).

target: 'Empty' HLA-DR1 purified from insect cells expressing recombinant DR1 cDNA (human)

Going from VGSDWRFLRGYHQYA [Pseudo HLA-A2 103-117] to KMRMATPLLMQALPM [Invariant Chain (Ii) 107-121], the Ki falls from 49 nM to under 10 nM. The second binds more tightly here.

Compared with IPADLRIISANGCKVDNS [Na+/K+ ATPase 199-216], RVEYHFLSPYVSPKESP [Transferrin Recpt. 680-696] is lower in Ki: 68 nM for the first, under 10 nM for the second. The second binds more tightly here.

Going from YKHTLNQIDSVKVWPRR [Bovine Fetuin 56-72] to LPKPPKPVSKMRMAT [Ii 97-111], the Ki rises from 66 nM to over 10000 nM. The first binds more tightly here.

With SDLSFSKDWSFYL [β2m 52-64] the Ki was over 10000 nM.
